Substitutions are numbered along the chain they refer to. In names and notes the source's numbering stands.
T1: human MCSP(D3 domain)-avi-his (human, UniProt Q6UVK1 1582-2224)
T1 construct: Recombinant D3 domain of MCSP (CSPG4) with avi and his tags; also called hu-MCSP(D3 domain)-avi-his; human MCSP antigen
T1 sequence: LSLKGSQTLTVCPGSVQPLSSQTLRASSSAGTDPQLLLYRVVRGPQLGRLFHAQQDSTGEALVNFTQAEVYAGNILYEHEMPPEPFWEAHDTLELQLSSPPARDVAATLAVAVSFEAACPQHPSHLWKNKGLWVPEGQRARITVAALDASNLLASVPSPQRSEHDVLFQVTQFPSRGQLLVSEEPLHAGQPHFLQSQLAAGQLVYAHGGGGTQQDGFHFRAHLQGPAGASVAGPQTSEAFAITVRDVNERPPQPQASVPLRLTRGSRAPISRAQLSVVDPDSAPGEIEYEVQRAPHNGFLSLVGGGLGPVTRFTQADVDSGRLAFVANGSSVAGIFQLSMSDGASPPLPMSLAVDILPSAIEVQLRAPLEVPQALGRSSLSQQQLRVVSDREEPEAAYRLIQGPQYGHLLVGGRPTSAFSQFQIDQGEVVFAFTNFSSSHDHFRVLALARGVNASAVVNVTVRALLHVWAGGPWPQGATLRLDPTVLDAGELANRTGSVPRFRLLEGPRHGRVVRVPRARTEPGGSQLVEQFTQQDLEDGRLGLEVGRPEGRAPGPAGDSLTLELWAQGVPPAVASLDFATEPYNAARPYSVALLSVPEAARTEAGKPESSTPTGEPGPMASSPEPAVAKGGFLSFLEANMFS

T2: cynomolgus MCSP D3 (cynomolgus, UniProt Q6UVK1 1582-2224 (human entry), limits assumed)
T2 construct: Recombinant, captured through anti-Penta His in the avidity set-up; also called Cyno MCSP; cynomolgus homologue
T2 chain: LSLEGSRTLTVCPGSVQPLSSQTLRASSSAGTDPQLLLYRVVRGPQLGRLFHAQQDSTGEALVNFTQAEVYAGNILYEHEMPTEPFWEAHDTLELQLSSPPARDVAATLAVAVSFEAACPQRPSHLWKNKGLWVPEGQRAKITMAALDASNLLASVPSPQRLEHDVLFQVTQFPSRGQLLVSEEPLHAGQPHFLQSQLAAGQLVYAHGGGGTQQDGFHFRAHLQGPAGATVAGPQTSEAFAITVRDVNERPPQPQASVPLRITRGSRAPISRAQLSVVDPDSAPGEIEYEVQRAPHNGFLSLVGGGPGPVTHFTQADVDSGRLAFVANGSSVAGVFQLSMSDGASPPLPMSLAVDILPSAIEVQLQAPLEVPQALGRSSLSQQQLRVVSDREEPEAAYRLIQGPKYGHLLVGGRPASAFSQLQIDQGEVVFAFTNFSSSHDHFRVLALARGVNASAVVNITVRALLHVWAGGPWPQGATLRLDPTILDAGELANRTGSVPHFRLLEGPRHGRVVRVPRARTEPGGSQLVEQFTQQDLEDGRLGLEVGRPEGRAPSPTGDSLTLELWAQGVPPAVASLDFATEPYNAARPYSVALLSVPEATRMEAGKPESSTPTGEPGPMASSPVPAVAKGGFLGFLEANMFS

B1: MCSP TCB (2+1 Crossfab-IgG P329G LALA inverted) (bispecific antibody)
chain 1: not shown
chain 2: QAVVTQEPSLTVSPGGTVTLTCGSSTGAVTTSNYANWVQEKPGQAFRGLIGGTNKRAPGTPARFSGSLLGGKAALTLSGAQPEDEAEYYCALWYSNLWVFGGGTKLTVLSSASTKGPSVFPLAPSSKSTSGGTAALGCLVKDYFPEPVTVSWNSGALTSGVHTFPAVLQSSGLYSLSSVVTVPSSSLGTQTYICNVNHKPSNTKVDKKVEPKSC
chain 3: not shown
chain 4: QVQLQESGPGLVKPSQTLSLTCTVSGGSITSGYYWNWIRQHPGKGLEWIGYITFDGSNNYNPSLKSRVTISRDTSKNQFSLKLSSVTAADTAVYYCADFDYWGQGTLVTVSSASTKGPSVFPLAPSSKSTSGGTAALGCLVKDYFPEPVTVSWNSGALTSGVHTFPAVLQSSGLYSLSSVVTVPSSSLGTQTYICNVNHKPSNTKVDKKVEPKSCDKTHTCPPCPAPEAAGGPSVFLFPPKPKDTLMISRTPEVTCVVVDVSHEDPEVKFNWYVDGVEVHNAKTKPREEQYNSTYRVVSVLTVLHQDWLNGKEYKCKVSNKALGAPIEKTISKAKGQPREPQVCTLPPSRDELTKNQVSLSCAVKGFYPSDIAVEWESNGQPENNYKTTPPVLDSDGSFFLVSKLTVDKSRWQQGNVFSCSVMHEALHNHYTQKSLSLSPGK
notes: Two anti-MCSP Fabs M4-3(C1) ML2(G3), one anti-CD3 crossfab (humanized CH2527), Fc knob-into-hole with P329G LALA; the conventional light chain occurs twice (vector ratio 1:2:1:1); also called MCSP TCB antibody; MCSP CD3 bispecific antibody
B2: M4-3(A7)/ML2(E10) IgG (antibody, V domains shown)
VH: QVQLQESGPGLVKPSQTLSLTCTVSGGSITDGYYWNWIRQHPGKGLEWIGYITFDGRNNYNPSLKSRVTISRDTSKNQFSLKLSSVTAADTAVYYCADFDYWGQGTLVTVSS
VL: DIQMTQSPSSLSASVGDRVTITCRASYGIRGYLNWYQQKPGKAPKLLIYYTSSLHSGVPSRFSGSGSGTDFTLTISSLQPEDFATYHCQQYSKLPWTFGQGTKVEIK
notes: Human IgG1 format, purified from mammalian production
B3: M4-3(C1)/ML2(G3) IgG (antibody, V domains shown)
VH: B2 VH with D31S, R57S
VL: DIQMTQSPSSLSASVGDRVTITCRASQGIRNYLNWYQQKPGKAPKLLIYYTSSLHSGVPSRFSGSGSGTDYTLTISSLQPEDFATYYCQQYSALPWTFGQGTKVEIKR
notes: Human IgG1 format, produced in HEK293-EBNA
B4: M4-3(A7)/ML2(G3) IgG (antibody, V domains shown)
VH: B2 VH
VL: B2 VL with Y27Q, G31N, F71Y, H87Y, K93A
notes: as for B2
B5: M4-3(B7)/ML2 IgG (antibody, V domains shown)
VH: B2 VH with D31S, R57I
VL: B2 VL with Y27Q, G31N, H87Y
notes: as for B2
B6: M4-3/ML2(E10) IgG (antibody, V domains shown)
VH: B2 VH with D31S, F54Y, R57S
VL: B2 VL
notes: as for B2
B7: M4-3(D6)/ML2 IgG (antibody, V domains shown)
VH: B2 VH with D31S, R57K
VL: B2 VL with Y27Q, G31N, H87Y
notes: as for B2
B8: M4-3(C1)/ML2(C5) IgG (antibody, V domains shown)
VH: B2 VH with D31S, R57S
VL: B2 VL with Y27R, G31E, S52G, H87Y, K93E
notes: as for B3
B9: M4-3/ML2(E10/G3) IgG (antibody, V domains shown)
VH: B2 VH with D31S, F54Y, R57S
VL: B2 VL with K93A
notes: as for B2
B10: M4-3(B8)/ML2 IgG (antibody, V domains shown)
VH: B2 VH with D31S
VL: B2 VL with Y27Q, G31N, H87Y
notes: as for B2
B11: M4-3/ML2(C5) IgG (antibody, V domains shown)
VH: B2 VH with D31S, F54Y, R57S
VL: B2 VL with Y27R, G31E, S52G, H87Y, K93E
notes: as for B2
B12: M4-3/ML2(G3) IgG (antibody, V domains shown)
VH: B2 VH with D31S, F54Y, R57S
VL: B2 VL with Y27Q, G31N, F71Y, H87Y, K93A
notes: as for B2
B13: M4-3(C1)/ML2 IgG (antibody, V domains shown)
VH: B2 VH with D31S, R57S
VL: B2 VL with Y27Q, G31N, H87Y
notes: as for B2
B14: M4-3(A7)/ML2 IgG (antibody, V domains shown)
VH: B2 VH
VL: B2 VL with Y27Q, G31N, H87Y
notes: as for B2
B15: M4-3(C1)/ML2(E10) IgG (antibody, V domains shown)
VH: B2 VH with D31S, R57S
VL: B2 VL
notes: as for B3
B16: M4-3/ML2(C5/G3) IgG (antibody, V domains shown)
VH: B2 VH with D31S, F54Y, R57S
VL: B2 VL with Y27R, G31E, S52G, H87Y, K93A
notes: as for B2
B17: M4-3(A7)/ML2(C5) IgG (antibody, V domains shown)
VH: B2 VH
VL: B2 VL with Y27R, G31E, S52G, H87Y, K93E
notes: as for B2

What follows are binders tested against T3, human CD3 on Jurkat cells (Homo sapiens, UniProt P07766) (assay: flow cytometry on Jurkat cells (CD3+), PE-conjugated anti-human IgG Fcγ secondary antibody, median fluorescence intensity).
T3 construct: native, on the surface of the Jurkat human T cell line; also called CD3+ cells (Jurkat)
Protocol: Briefly, cells were harvested, counted, checked for viability and resuspended at 2×10⁶ cells/ml in FACS buffer (100 μl PBS 0.1% BSA).

T3 sequence (P07766 23-207): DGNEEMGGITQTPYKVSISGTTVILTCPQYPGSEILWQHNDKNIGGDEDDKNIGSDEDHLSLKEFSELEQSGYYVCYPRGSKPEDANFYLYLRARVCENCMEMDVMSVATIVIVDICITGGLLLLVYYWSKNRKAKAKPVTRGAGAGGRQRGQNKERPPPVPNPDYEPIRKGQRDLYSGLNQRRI

B1: binds.

What follows are binders tested against T1, human MCSP(D3 domain)-avi-his (assay: SPR ProteOn XPR36; parental M4-3/ML2 IgG KD against variant IgG KD).

Point of comparison: B12, “Fold increase over parent (IgG KD)” value 6.7 fold. Against it:
- B2 — the same, 6.7 fold
- B3 — higher, 28.6 fold
- B4 — higher, 28.6 fold
- B5 — lower, 4 fold
- B6 — lower, 2 fold
- B7 — lower, 5 fold
- B8 — higher, 10 fold
- B9 — lower, 5 fold
- B10 — lower, 2.2 fold
- B11 — lower, 5 fold
- B13 — lower, 2.2 fold
- B14 — lower, 2.5 fold
- B15 — lower, 4 fold
- B16 — lower, 2.9 fold
- B17 — higher, 28.6 fold

Target: T2, cynomolgus MCSP D3
Assay: as above

Point of comparison: B10, “Fold increase over parent (IgG KD)” value 2 fold. Against it:
- B2 — higher, 2.9 fold
- B3 — higher, 10 fold
- B4 — higher, 10 fold
- B5 — higher, 2.9 fold
- B6 — lower, 1 fold
- B7 — the same, 2 fold
- B8 — higher, 6.7 fold
- B9 — higher, 2.2 fold
- B11 — the same, 2 fold
- B12 — higher, 3.3 fold
- B13 — higher, 2.5 fold
- B14 — the same, 2 fold
- B15 — higher, 3.3 fold
- B16 — the same, 2 fold
- B17 — higher, 10 fold
